Series [1] addresses AhR-ARNT heterodimer (human AhR + human ARNT) (Homo sapiens, UniProt P35869;P27540 P35869:1-848,P27540:1-789). Description: EMSA; 20 nM TCDD, 2 h room temperature; poly dIdC; ligand dependent. The conditions noted are these: tags: reticulocyte lysate TNT; label: 32P end-label; 5' TCGA overhangs. As to the method:
(§1) A complementary pair of synthetic oligonucleotides, 5'-[…]-3' Sequence ID. No. 16 and 5'-TCGAGCTGGGC-CCATTGCGTGATCTAC-3' Sequence ID. No. 17 (containing DRE3) were annealed and end-labeled with gamma ^32P-labeled deoxyadenosine triphosphate as described. Sambrook, J., Fritsch, E. F., Maniatis, T., *Molecular Cloning: A Laboratory Manual/second edition* (Cold Spring Harbor Laboratory Press, 1989). Cytosolic extracts (35 μg of protein) obtained from either human SCC cells or murine Hepa 1c1c7 cells (From James P. Whitlock Jr.) were incubated in the presence of DMSO (−) or 20 nM TCDD (+) for 2 hours at either room temperature (human) or 30° (murine). Nonspecific competitor, poly dIdC, was added and incubated 15 minutes at room temperature. The radiolabeled probe was then added and incubated 15 minutes at room temperature followed by nondenaturing gel electrophoresis. In vitro translated human AhR and ARNT proteins were incubated with either DMSO (−) or 20 nM TCDD (+) for 2 hours at room temperature followed by gel shift assays as described above. In vitro translated mouse AhR and humanARNT proteins were incubated with either DMSO (−) or 20 nM TCDD (+) for 2 hours at 30° followed by electrophoretic mobility shift assays.

The next series deals with ARNT alone (Homo sapiens, UniProt P27540 P27540:1-789). Nature of the series: EMSA; no binding without AhR. Particulars: label: 32P end-label; 5' TCGA overhangs. As to the method:
as §1

The target in series [2] is AhR-ARNT heterodimer (mouse AhR + human ARNT) (Mus musculus / Homo sapiens, UniProt P30561;P27540 P30561:1-805,P27540:1-789). Nature of the series: EMSA; 20 nM TCDD, 2 h 30 C; poly dIdC; ligand dependent. Particulars: tags: reticulocyte lysate TNT; label: 32P end-label; 5' TCGA overhangs. How it is done:
as §1

For the next series, the target named is T1, AhR (human) alone (Homo sapiens, UniProt P35869 SEQ:1-848).
T1 chain: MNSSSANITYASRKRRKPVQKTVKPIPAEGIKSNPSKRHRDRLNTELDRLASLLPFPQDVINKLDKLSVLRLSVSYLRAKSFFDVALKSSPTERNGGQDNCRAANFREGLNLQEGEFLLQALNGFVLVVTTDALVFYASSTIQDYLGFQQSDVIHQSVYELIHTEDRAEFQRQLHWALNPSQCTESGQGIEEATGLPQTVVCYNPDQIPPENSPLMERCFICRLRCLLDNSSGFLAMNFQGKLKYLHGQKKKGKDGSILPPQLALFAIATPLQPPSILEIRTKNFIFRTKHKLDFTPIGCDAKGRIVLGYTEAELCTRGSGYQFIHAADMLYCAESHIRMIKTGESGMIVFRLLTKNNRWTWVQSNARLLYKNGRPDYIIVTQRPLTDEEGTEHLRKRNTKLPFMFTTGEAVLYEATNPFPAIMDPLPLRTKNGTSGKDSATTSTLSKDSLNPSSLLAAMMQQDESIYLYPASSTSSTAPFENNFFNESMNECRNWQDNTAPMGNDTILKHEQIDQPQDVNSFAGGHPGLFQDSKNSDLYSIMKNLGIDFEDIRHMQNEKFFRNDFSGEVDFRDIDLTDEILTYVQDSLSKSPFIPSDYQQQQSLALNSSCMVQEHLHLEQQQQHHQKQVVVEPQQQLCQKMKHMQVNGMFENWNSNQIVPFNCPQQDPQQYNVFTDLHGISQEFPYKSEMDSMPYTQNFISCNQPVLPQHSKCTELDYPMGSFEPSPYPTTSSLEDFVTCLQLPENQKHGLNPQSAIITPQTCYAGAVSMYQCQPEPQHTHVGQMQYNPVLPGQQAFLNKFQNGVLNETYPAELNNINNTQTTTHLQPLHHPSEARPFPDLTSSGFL
Description: EMSA; no binding without ARNT. The conditions noted are these: label: 32P end-label; 5' TCGA overhangs. As to the method:
as §1
(Mobility shift assays separate free from complexed probe on a gel.)

Chain of AhR-ARNT heterodimer (mouse AhR + human ARNT) (P30561 1-805, chain 1 of 2): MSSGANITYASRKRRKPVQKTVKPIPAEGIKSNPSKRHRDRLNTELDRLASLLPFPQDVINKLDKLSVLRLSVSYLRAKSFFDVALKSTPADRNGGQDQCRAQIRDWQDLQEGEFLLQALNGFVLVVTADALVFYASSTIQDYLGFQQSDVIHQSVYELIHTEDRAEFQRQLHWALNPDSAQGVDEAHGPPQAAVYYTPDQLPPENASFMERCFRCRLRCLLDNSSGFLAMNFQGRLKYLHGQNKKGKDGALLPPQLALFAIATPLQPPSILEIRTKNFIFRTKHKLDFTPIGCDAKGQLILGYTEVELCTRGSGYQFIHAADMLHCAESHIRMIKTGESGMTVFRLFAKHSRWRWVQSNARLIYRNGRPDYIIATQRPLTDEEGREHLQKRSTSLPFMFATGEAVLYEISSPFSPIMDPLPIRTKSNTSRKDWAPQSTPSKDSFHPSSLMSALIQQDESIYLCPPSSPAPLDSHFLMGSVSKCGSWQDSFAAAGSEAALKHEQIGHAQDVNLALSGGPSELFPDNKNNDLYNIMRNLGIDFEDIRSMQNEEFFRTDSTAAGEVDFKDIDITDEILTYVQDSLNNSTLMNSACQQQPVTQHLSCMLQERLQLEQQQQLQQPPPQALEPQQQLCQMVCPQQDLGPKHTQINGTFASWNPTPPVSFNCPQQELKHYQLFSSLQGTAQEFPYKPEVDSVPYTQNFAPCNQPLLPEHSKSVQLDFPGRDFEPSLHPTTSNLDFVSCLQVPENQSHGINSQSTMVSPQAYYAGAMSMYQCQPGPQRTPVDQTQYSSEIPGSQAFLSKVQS
Chain of AhR-ARNT heterodimer (mouse AhR + human ARNT) (P27540 whole entry, chain 2 of 2): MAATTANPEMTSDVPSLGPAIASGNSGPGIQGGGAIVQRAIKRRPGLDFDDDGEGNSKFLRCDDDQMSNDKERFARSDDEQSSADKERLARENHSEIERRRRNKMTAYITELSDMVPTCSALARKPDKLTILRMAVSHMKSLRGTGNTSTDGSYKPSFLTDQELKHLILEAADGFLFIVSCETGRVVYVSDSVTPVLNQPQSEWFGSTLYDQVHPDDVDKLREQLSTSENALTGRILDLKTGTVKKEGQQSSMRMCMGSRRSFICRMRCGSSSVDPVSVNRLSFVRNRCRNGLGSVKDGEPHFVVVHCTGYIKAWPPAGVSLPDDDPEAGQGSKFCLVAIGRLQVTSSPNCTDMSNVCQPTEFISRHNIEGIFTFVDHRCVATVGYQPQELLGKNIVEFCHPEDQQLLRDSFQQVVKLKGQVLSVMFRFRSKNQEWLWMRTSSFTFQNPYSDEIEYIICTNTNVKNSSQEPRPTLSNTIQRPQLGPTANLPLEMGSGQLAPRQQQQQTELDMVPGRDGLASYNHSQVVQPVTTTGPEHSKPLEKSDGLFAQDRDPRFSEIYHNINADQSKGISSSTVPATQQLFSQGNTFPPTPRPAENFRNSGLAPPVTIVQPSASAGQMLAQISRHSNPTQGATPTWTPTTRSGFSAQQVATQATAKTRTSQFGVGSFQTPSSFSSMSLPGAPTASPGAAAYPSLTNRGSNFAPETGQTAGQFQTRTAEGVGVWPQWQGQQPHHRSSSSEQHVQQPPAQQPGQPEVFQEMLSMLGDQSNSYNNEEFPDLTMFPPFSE
Chain of AhR-ARNT heterodimer (human AhR + human ARNT) (P27540 whole entry, one chain of several): as the sequence (P27540 whole entry, chain 2 of 2) above
Chain of ARNT alone (P27540 whole entry, one chain of several): as the sequence (P27540 whole entry, chain 2 of 2) above

B1: DRE3 (dsDNA)
DNA 1: TCGAGTAGATCACGCAATGGGCCCAGC
DNA 2: TCGAGCTGGGCCCATTGCGTGATCTAC
Regarding B1, the binding result in series [1] is “binds”; with ARNT alone it was “no binding”; in series [2], “binds”; with AhR (human) alone, “no binding”.

These data come from US5378822, “Nucleic acids encoding murine and human Ah receptors” (Wisconsin Alumni Research).
